From paper PMC4510971 (2015) come the findings set out here.

The Kd is the equilibrium constant for the complex coming apart. Lower therefore signals a tighter complex. One may read the IC50 as the concentration at which inhibition is half-maximal. Read a high IC50 as a need for much substance.

To fix the notation:
B1: UBN1(92–175) (domain or fragment)
chain: NDEEKERHKVEALARKFEEKYGGKKRRKDRIQDLIDMGYGYDESDSFIDNSEAYDELVPASLTTKYGGFYINSGTLQFRQASES
B2: UBN1(92–148) (domain or fragment)
chain: NDEEKERHKVEALARKFEEKYGGKKRRKDRIQDLIDMGYGYDESDSFIDNSEAYDEL
B3: UBN1(122–175) (domain or fragment)
chain: not shown
B4: UBN1(92–175) E147A (protein)
chain: B1 chain with E56A
B5: UBN1(92–175) Y145A (protein)
chain: B1 chain with Y54A
B6: UBN1(92–175) L148A (protein)
chain: B1 chain with L57A
B7: UBN1(92–175) D146A (protein)
chain: B1 chain with D55A
B8: UBN1(92–175) E143A (protein)
chain: B1 chain with E52A
B9: UBN1(92–175) S137A (domain or fragment)
chain: B1 chain with S46A
B10: UBN1(92–175) G131A (protein)
chain: B1 chain with G40A
B11: UBN1(92–175) I122A (protein)
chain: B1 chain with I31A
B12: UBN1(92–175) I126A (protein)
chain: B1 chain with I35A
B13: UBN1(92–175) Q123A (protein)
chain: B1 chain with Q32A
B14: UBN1(92–175) G129A (protein)
chain: B1 chain with G38A
B15: UBN1(92–175) D124A (protein)
chain: B1 chain with D33A
B16: UBN1(92–175) M128A (protein)
chain: B1 chain with M37A
B17: UBN1(92–175) D127A (protein)
chain: B1 chain with D36A
B18: UBN1(92–175) L125A (protein)
chain: B1 chain with L34A
B19: UBN1(92–175) Y130A (protein)
chain: B1 chain with Y39A
B20: UBN1(92–175) A144I (protein)
chain: B1 chain with A53I

Residue numbers refer to the chain shown, from its start. Numbers in names are those of the source.

In one experiment the target is T1, H3.3/H4 (human | X. laevis, UniProt P84243 1-136; P62799 1-103). The experiment is described as follows: ITC. On the technique in general: Isothermal titration calorimetry measures the heat released or taken up as one component is titrated into another.
For B1, the dissociation constant Kd stood at 6.9 µM.

The target of a further experiment is T1, H3.3/H4. Nature of the experiment: ITC. This is another data set of the same source.
B2 registered an equilibrium dissociation constant (Kd) of 16.5 µM. That is a double-digit micromolar value.
For B3, binding was put at a Kd of 14.6 µM. The Kd values of the last two molecules are within 1.5-fold of each other.

The target in another experiment is T1, H3.3/H4. Nature of the experiment: FP.
Take B4: the IC50 came out at 22.9 µM.
The molecule B5 displayed a half-inhibitory concentration (IC50) of 16.4 µM.
B6: the half-inhibitory concentration (IC50) came out at 19.6 µM.
B7 registered a half-inhibitory concentration (IC50) of 23 µM.
Same read-out and setting: with B8 the figure was 29.3 µM; with B9, 16.2 µM; with B10, 19.9 µM.
B11: the concentration for half-maximal inhibition (IC50) was 16.9 µM.
The same measure, in the same setting: under B12 stands 13.8 µM; under B13, 13.8 µM; under B1, 16.6 µM.
Molecule B14 displayed an IC50 of 67.8 µM.
The same measure, in the same setting: with B15 the figure was 19.6 µM; with B16, 22.6 µM.
Regarding B17, the IC50 came out at 21.1 µM.
The molecule B18 returned an IC50 of 15.1 µM.
The molecule B19 yielded a half-inhibitory concentration (IC50) of 14.4 µM.
On to B20, for which the IC50 was found to be 16.3 µM.

In a further experiment the target is H3.3(G90M)/H4 (human | X. laevis, UniProt P62799 1-103). Nature of the experiment: ITC.
In turn, IQDLIDMGYGYDESDSFIDNSEAYDEL [UBN1(122–148) peptide] came in with a dissociation constant (Kd) of 115 µM.

The target in the next experiment is T1, H3.3/H4. Nature of the experiment: FP. The source holds these as a separate data set.
IQDLIDMGYGYDESDSFIDNSEAYDEL [UBN1(122–148) peptide] yielded an IC50 of 46.4 µM.
